Results published in article PMC3597663 (Nucleic Acids Research, 2013).

Molecular target: Mycobacterium tuberculosis RsdA^1-94 (Mycobacterium tuberculosis, UniProt P9WJ71 1-94)
Assay: SPR

Sequence of Mycobacterium tuberculosis RsdA^1-94 (P9WJ71 1-94): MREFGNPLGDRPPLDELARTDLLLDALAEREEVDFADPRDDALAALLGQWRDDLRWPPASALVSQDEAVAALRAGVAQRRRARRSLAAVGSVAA

B1: -35 promoter binding domain of Mycobacterium tuberculosis σ^D (σ^D4), residues 141-212 (domain or fragment)
chain: MAIEADSVTRMNELLEILPAKQREILILRVVVGLSAEETAAAVGSTTGAVRVAQHRALQRLKDEIVAAGDYA
B1 gave a Kd of 10.3 ± 3.5 µM.
